Consider 41 sequences from the nanobody polyreactivity screen of Harvey et al. (2022).

The nature of the data set: yeast display, Sf9 membrane polyspecificity reagent, FACS + sequencing; frameworks hold sequencing errors. In a few lines:
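After 36–48 hours of galactose induction, yeast (Saccharomyces cerevisiae BJ5465) displaying a synthetic nanobody library were stained at 4 °C for 1 hour with 10% biotinylated, detergent-solubilized Sf9 membrane reagent. Streptavidin microbeads enriched the stained cells before FACS sorting into low and high (top ~1%) gates on anti-HA and streptavidin fluorescence. Each clone's polyreactivity label reflects its gate of origin.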
As to “QVQLVESGGGLVQAGGSLRLSCAASGSTFRKYAMGWYRHAPGKEREFVAAITWSTGTTYYADSVKGRFTISRDHAKNTVYLQMNSLKPEDTAVYDCAADSQPPHELYESIEHESWGQGTQVTVSS”, the “polyreactivity (PSR sort gate)” value was “low polyreactivity”.

For the sequence “QVQLVESGGGLVQAGGSLRLSCAASGRTFYPYAMGWNRQAPGKERELVAAIRSSGGTTYYADSVKGRFTISRDNAKNTVYLQMNSLKPEDTAFYYCAAYVDRQGGYYWGQGTQVTVSS”, the “polyreactivity (PSR sort gate)” value is reported as “high polyreactivity”.

For the sequence “QVQLVESGGVLVQAGGSLRLSCAASGRIFSSYAMGWNRHAPGKERELVATSRRADSTYYADSVKGRFTISRDNAKNTVYLQMNSLKPEDTAVYYCAADTRLSRLIHRYDYWGQGTQVTVSS”, the “polyreactivity (PSR sort gate)” value was “low polyreactivity”.

As to “QVQLVESGGGLVQAGGSLRLSCAASGFTFAGYAMGWYRQAPGKERELVAAISWRGGSTYYADSVKGRFTISRDNAKNTVYLQMNSLKPEDTAVYYCAAASRKRTSREPLDYWGQGTQVTVSS”, the “polyreactivity (PSR sort gate)” value is on record as “high polyreactivity”.

For “QVQLVESGRGLVQAGRTLRLSCAASGFIFQWYTMGWYRQAPGKDRELVADIRSGGDTNYADSVKGRFTISRDTAKNSVYLQMYSLKPEDTAVYYCATETFFPLRRASYGRKLGYWGQGTQVTVSS”, the “polyreactivity (PSR sort gate)” value was “low polyreactivity”.

For “QVQLVESGGGLVQAGGSLRLSCAASGSIFTVYAMGWYRQAPGKERELVAVINYRGGNTYYADSVKGRFTISRDNAKNTVYLQMNSLKPEDTAVYNCATEVSWHWYQLSVPRMDYWGQGTQVTVSS”, the “polyreactivity (PSR sort gate)” value is recorded as “low polyreactivity”.

For the sequence “QVQLVESGGGLVQAGGSLRLSCAASGLIIPVYVMGWYRQAPGKERELVADITTVGSTYADSVKGRFTISRDNAKNTVYLQMNSLQPEDTAVYYCAADPPAPQYWWDHGNYWGQGTQVTVSS”, the “polyreactivity (PSR sort gate)” value is on record as “low polyreactivity”.

Take “QVQLVESGGGLVQAGGSLRLSCAASGRTFEQYAMGWYRQARGKERELVAAISGSGGSTFYADSVKGRFTISRDNAKNTVYLQMNSLKPEDTAVYYCNAPGDGYLYDHTYDYWGQGTQVTVSS”: the “polyreactivity (PSR sort gate)” value is listed as “low polyreactivity”.

Take “QVQLVESAGGLVQAGGSLRLSCAASGRIFSTYAMGWYRQAPGKERELVAAISWRGSSTYYADSVKGRFTISRDHAKNTVYLQMNSLKPEDTAVYYCNADKANRYDWGQGTQVTVSS”: the “polyreactivity (PSR sort gate)” value is “high polyreactivity”.

On to “QVHLVESGGGLVQAGGSLRLSCAASGSNYSYYGMGWYRQAPGKERELVAAITDGDGTNYADSVKGRFTISRDNAKNTVYLQMNSLIPEDTAVYYCNRDFWYGVSPGREFYLYDYWGQGTLVTVSS”, for which the “polyreactivity (PSR sort gate)” value is “low polyreactivity”.

Regarding “QVQLVESGGGLVQAGGSLRLSCAASGSIFIYYAMGWYRQAPGKERELVAAINIGGSTYYADSVKGRFTISRDNAKNTVYFQMNSLKPEDTAVYYCNAATWYRVYPYYIIFDYWGQGTQVTVSS”, the “polyreactivity (PSR sort gate)” value was “low polyreactivity”.

Consider “QVQLVETGGGLVQAGGSLRLSCAASGSTFPAYTMGWYRQAPGKERELVAAITTGGRTYYADSVKGRFTISRDNAKNTVYLQMNSLKPEDTAVYYCAAKRYCYRSLPYYGIHGWGQGTQVTVSS”, for which the “polyreactivity (PSR sort gate)” value was “high polyreactivity”.

As for “QVQLVESGGGLVQAGGSLRLSCAASGLIFWRYDMGWYRQAPGKERELVAVITSGGNTYYADSVKGRFTISRDNAKNTVYLQMNSLKPEDTAVYYCNADTWRDDYDYWGQGTQVTVSS”, the “polyreactivity (PSR sort gate)” value is listed as “low polyreactivity”.

“QVQLVESGGGLVQAGGSLRLSCAASGSIFYTYTMGWYRQAPGKERELVAAISRGGRTYYADSVKGRFTISRDNAKNTVYLQMNSLKPEDTAVYYCAAYGYGSWGQGTQVTVSS”: the “polyreactivity (PSR sort gate)” value is “high polyreactivity”.

On to “QVQLVESGGGLVQAGGSLRLTCAASGAIFEYYSMSWYIQAPGKERELVAAISSGGPTYYADSVKGRFTISRDNAKNTVYLQMNSLKPEDTAVYYCNADLWYPDYEYWGQGTQVNVSS”, for which the “polyreactivity (PSR sort gate)” value is recorded as “low polyreactivity”.

Take “QVQLVESGGGLVQAGGSLRFSCAASGSIFRVNAMGWYRQAPGKERELVAAITDGGITNYADSVKGRFTISRDNAKNTVYLQMNSLKPEDTAVYYCAADTDRDFHYVVPTYDYWGQGTQVTVSS”: the “polyreactivity (PSR sort gate)” value is recorded as “low polyreactivity”.

Consider “QVQLVESGGGLVQAGGSLRLSCAASGFTFGSNTMGWYRQAPGKERELVAAITTSGDSTYYADSVKGRFTISRDNAKNTVYLQMNSLKPEDTAVYYCAARTYYQGGYYYWGPGTQVTVSS”, for which the “polyreactivity (PSR sort gate)” value is on record as “high polyreactivity”.

Turning to “QVQLVESGGGLVQAGGSLRLSCAASGSTFYVNDMGWYRQAPGKERELVAAITWGVGDTYYADSVKGRFTISRDNAKNTVYLQMNSLKPEDTAVYYCAADTSYYYAYTQMEYWGQGTQVTVSS”, the “polyreactivity (PSR sort gate)” value is “low polyreactivity”.

As to “QVQLEESGGGLVQAGGSLRLSCAASGSTFCYYPMGWYRQAPGKEREFVAAISSSGGSTYYADYVKGRFTISRDNAKNTVYFQMNSLKPEDTAVYYCARVGFPGFYWGQGTEVTVSS”, the “polyreactivity (PSR sort gate)” value is “high polyreactivity”.

As for “QVQLVESGGGLVQAGGSLRLSCAASGNTYSYNAMGWYRQAPGKEREFVASISRRGGRTNYADSVKGRFTISRDNAKYTVYLQMNSLKPEDTAVYYCAATTVPLGDYWGQGTQVTVST”, the “polyreactivity (PSR sort gate)” value is on record as “high polyreactivity”.

For the sequence “QVQLVESGGGLVQAGGSLRLSCAASGSIFKGYAMGWYRQAPGKERELVAAISIRGGSTYYADSVKGRFTISRDNAKNTVYLQMNSLKPEDTAVYYCAASSKRKYLYNYWGQGTQVTVSS”, the “polyreactivity (PSR sort gate)” value is listed as “high polyreactivity”.

Take “QVQLVESGGGLVQAGGSLRLSCAASGIIFSSYVMGWYRQAPGKERELVAAISKSGARTSYADSVKGRFTISRDNAKNTVYLQMNSLKPEDTAVYYCAATYLLERPTSKHPRYDYWGQGTQVTVSS”: the “polyreactivity (PSR sort gate)” value is listed as “low polyreactivity”.

With “QVQLVESGGCIVQAGGSLRLSCAASGITFLSNPMGWYSQAPGKERELVAAIDCRGDSTYYADSVKGRFTISRDNAKNTVYLQMNSLKPEDTAVYYCNADISGSGQWDGYDYWGQGTQVSVSS”, the “polyreactivity (PSR sort gate)” value is “low polyreactivity”.

On to “QVQLVESGGGLVQAGGSLRLSCAASGFISARYAMGWYRQAPGKERELVAGISGGGGRTYYADSVKGRFTISRDNAKNTVYLQMNSLKPEDTAVYYCASTQQSRDRRFNYWGQGTQVTVSS”, for which the “polyreactivity (PSR sort gate)” value was “high polyreactivity”.

For “QVQLVESGGGLVQAGGSLRLSCAASGSIFEDYAMGWYRQAPGKERELVAGINWSGGSTYYADSVKGRFTISRDNAKNTVYLQMNSLKPEDTAVYYCAAKAFYYYYTEHDYWGQGTQVTVSS”, the “polyreactivity (PSR sort gate)” value is given as “high polyreactivity”.

Regarding “QVQLVESGGGLVQAGGSLRLSCAPSGRTFYLNAMGWYRPAPGKERELVAAIRFSGGSTYYADSVKGRFTISRDNAKNTVYLQMNSLKPEDTAVYYCNAGPYLSLYPTVSEYGYWGQGTQVTVSS”, the “polyreactivity (PSR sort gate)” value was “low polyreactivity”.

As to “QVQLVESGGGLVQAGGSLRLSCAASGIIFAWYVKGWYRQAPGKERELVAAITQSGGSTFYADSVKWRFTISRDNAKNTVYLQMNSLKPEDTAVYYCNREYWGRGYYRVRGEYDYWGQGTQVTVSS”, the “polyreactivity (PSR sort gate)” value is “low polyreactivity”.

Turning to “QVQLVESGGGLVQAGGSLRLSCAASGSTFVFYAMGLYRQAPGKERELVADITSGGRTSYADSVKGRFTISRDNAKNTVYLQMNSLKPEDTAVYYCAALTRWYAWYDYWGQGTQVTVSS”, the “polyreactivity (PSR sort gate)” value is “high polyreactivity”.

Consider “QVQLVESGGGLVQAGGSLRLSCAASGFTFRYNDMGWYRQAPGKERELVAVISSDGTTNYADSVKGRFTISRDNAKNTVYLQMNSLKPEDTAVYYCAAWEFRGNAYYVYAFDYWGQGTQVTVSS”, for which the “polyreactivity (PSR sort gate)” value was “low polyreactivity”.

With “QVQLVESGGGLVQAGGSLRLSCAASGFTFKYYVMGWYRQAPGKERELVASISKRGGSTRYADSVKGRFTISRDNAKNTVYLQMNSLKPEDTAVYYCAARSKVHRWRKRYDYWGQGTQVSVSS”, the “polyreactivity (PSR sort gate)” value was “high polyreactivity”.

For “QVQLVESGGGLVQAGGSLRLSCAASGIIFTSNTMGWYRQAPGKEREFVASINWNGSSTYADSVKGRFTISRDNAKNTVFLQMNSLKPEDTAVYDCNADYYRNSVQFSLYDYWGHGTQVTVSS”, the “polyreactivity (PSR sort gate)” value is reported as “low polyreactivity”.

As for “QVQLVESGGGLVQAGGSLRLSCAASGFTFNFYAMGWYRQAPGKERELVASITSSGARTYYADSVKGRFTISRDNAKNTVYLQMNSLKPEDTAVYYCAARVYRYSASRAYDYWGQGTQVTVSS”, the “polyreactivity (PSR sort gate)” value is “high polyreactivity”.

Turning to “QVQLVESGVGLVQAGGSLRLSCAASGSIFGFYAMGWYRQAPGKERELVAAITSGDSTHYADSVKGRFTISRDNAKNTVYLQMNSLKPEDTAVYYCAASAPYRYYRSAYYYWGQGTQVTVSS”, the “polyreactivity (PSR sort gate)” value was “low polyreactivity”.

For the sequence “QVQLVESGGGLVQAGGSLLLSCAASGLIFYWYAMGWYRQAPGKERELVAAISGGDRTKYADSVKGRFTISRDNAKNTVYLQMISLKPEDSAVYYCATAPYDTSRRYGPYEYWGQRTQVTVSS”, the “polyreactivity (PSR sort gate)” value is “low polyreactivity”.

Take “QDQLVESVGCLVQAGGSLRLSCAASGLTIQRNDMGWYRQAPGKEREFVATITSNAGSTYYADSVKGRFTISRDNAKNTVYLQKNSLKPEDTAVYYCARERWWGGSDYWGQGTQVTVSS”: the “polyreactivity (PSR sort gate)” value is given as “high polyreactivity”.

Take “QVQLGESGGGLVQAGGSLRLSCAASGRIYAAYAMGWSRQAPGKERELVAAISGSGGSTSYADSVKGRFTISRDNAKNTVYLQMNSLKPEYTAVYYCAADYSYLAEFDYWGQGTQVTVSS”: the “polyreactivity (PSR sort gate)” value is “low polyreactivity”.

On to “QVQLVESGGGLVQAGGSLRLSCAASGITFNPYGMGWYRPAPGKERELVADITCGGITDYADCVKGRFTIARDNAKNTVYLHKNSLKPEETAVYYCATGDLFVYYWCYVVRLYDYWGQGTQVTVSS”, for which the “polyreactivity (PSR sort gate)” value is listed as “low polyreactivity”.

On to “QVQLVESGGGLVQAGGSLRLSCAASGLIIDGYAMGWYRQAPGKERELVATITVSGTSTYYADSVKGRFTISRDNAKNTVYLQMNSLKPEDTAVYYCATDRNYGYYFVEYDHDYWGQGTQVTVSS”, for which the “polyreactivity (PSR sort gate)” value is on record as “low polyreactivity”.

Regarding “QVQLVESGGGLVQAGGSLRLSCAASGSIFEGNGRGWYREAPGKDRELVAAITFRSGSTYYADSVKGRFTISRDNAKNTVYLQMNSLKPEDTAVYYCAADEYYQVSAYDYWGQGTQVTVSS”, the “polyreactivity (PSR sort gate)” value is listed as “low polyreactivity”.

Turning to “QVQLVESGGGLVQAGGSLRLSCAASGFIFPRNVMGWYRQAPGKERELVAAISRSGGSTYYADSVKGRITISRDNAKNTVYLQMNSLKPEDTAVYYCDKRTFYNGEYWGQGTQVTVSS”, the “polyreactivity (PSR sort gate)” value is listed as “high polyreactivity”.

“QVQLVESGGGLVQAGGSLRLSCAASGRIFLYYTMGWYRQATWKERELVAAITRSGGSTYYADSVKGRFTISRDNAKNTVYLQMNSLKPEDTAVYYCNRAYVRYVPMNYWGQGTQVTVSS”: the “polyreactivity (PSR sort gate)” value is reported as “high polyreactivity”.
